To fix the notation:
B1: LINE1-full (parent)
chain: UACGUAGGUGGUUUUCCCCUGAUAGUGCUAAGGGGGCCUGGAAGUUUGGACUGGGCAGAGCUCAACACAGCGUGGCAAAGUGGCUGUGGCUAGACUGCCUCUCUGGAUUCCUCGUCACUCAGCAGGGCAUCUCUGAGAGAAAUGCC

In the series the parent is B1. The experiment in a line: self-cleavage, relative activity (ratio to wild type); higher = more cleavage; in vitro, sequencing; the parent is a self-cleaving ribozyme.
Turning to U14C C56U, the self-cleavage amounted to 0.18.
For U14C G106U the value was 0.66.
In the case of U14C U134A it was 0.84; in that of U14C U134C, 1.34.
In the case of U15A A67G it was 0.41.
In the case of U15C A30G, the self-cleavage came to 1.14.
For the variant U14C A59G, the self-cleavage was 0.14.
For U14C U26G the value was 1.61.
In the case of U14C U26C it was 1.12.
For U15A U108C the value was 1.49.
For the variant U15A U132A, the self-cleavage is 0.45.
For U14C U132C, the self-cleavage was determined as 1.43.
In the case of U14C U132A it was 0.87; in that of U14C C63A, 0.06; in that of U14C U62C, 0.09.
For U14C U62A the value was 0.1; for U15C C19U, 1.08.
For U15C U132A the value was 1.89; for U15C U132C, 1.47; for U15C A69G, 0.47.
Regarding U15A U134A, the self-cleavage was found to be 0.87.
In the case of U15A U91A it was 0.77.
For U15G G126C the value was 1.19; for U15C A64U, 0.66; for U15C U102G, 0.8.
For U15C U102A the value was 0.19.
As for U15C C63U, the self-cleavage turned out to be 0.43.
Take U14C A69C: the self-cleavage turned out to be 0.08.
For U14C A69U the value was 0.07; for U15C U134C, 1.43.
In the case of U14C A138C it was 1.56; in that of U14C A138G, 1.23; in that of U14C A138U, 0.98.
For U15G A65G the value was 0.1; for U14C G48U, 1.15; for U15A U96A, 0.09.
For U15A U96C, the self-cleavage was 0.41.
In the case of U15C U47A it was 1.42; in that of U15C U47C, 1.64.
For U14C A50G, the self-cleavage turned out to be 1.08.
For U14C U29G the value was 0.26; for U14C U45G, 1.34; for U14G A50U, 1.14.
For U15C U112A the value was 1.64.
In the case of U15C U112C it was 1.37; in that of U15A A140G, 1.11; in that of U15A A140U, 0.61.
Regarding U15G A50C, the self-cleavage is 1.37.
For U15C C145U the value was 1.47; for U15C U130C, 1.19.
In the case of U15C C146G it was 1.45; in that of U14C A79G, 0.84; in that of U15C A79G, 1.18.
For U15C A79C the value was 1.84.
U15G U104C: the self-cleavage is 0.89.
On to U15G A78U, for which the self-cleavage came out at 2.03.
For U14C C98U the value was 0.07; for U15C A43G, 1.4.
As for U15C A43U, the self-cleavage came to 1.09.
For U15G A141G the value was 1; for U15C U143C, 1.29; for U14C C95U, 0.21.
U15A C123G: the self-cleavage came to 0.92.
In the case of U14C C120U it was 1.48; in that of U15G U46C, 0.59.
As to U15C A65C, the self-cleavage came out at 0.09.
For U15C A65G the value was 0.1; for U14G U132C, 1.13.
In the case of U14C U39C it was 1; in that of U14C U39A, 1.12; in that of U15C A50U, 1.
In the case of U15C A92G it was 0.21; in that of U15A A124U, 0.85; in that of U15A A124G, 0.76.
Consider U14C G125A, for which the self-cleavage worked out at 1.46.
U14G U26A: the self-cleavage amounted to 1.18.
In the case of U14C G72A it was 1.23.
In the case of U15G U47A it was 1.16; in that of U15C A141G, 1.51; in that of U15G A124U, 0.58.
Take U15A U109C: the self-cleavage came out at 0.86.
In the case of U15A U109A it was 0.47; in that of U15C U96C, 0.23.
For U15C U96A the value was 0.1; for U15A G35C, 1.26; for U14C G114A, 1.06.
In the case of U14C U85A it was 0.08; in that of U14C U85C, 0.23.
Take U15C C120A: the self-cleavage came to 1.31.
For U15C C16U the value was 1.02.
Consider U15A U20C, for which the self-cleavage was 1.31.
For U15C A129U the value was 1.06; for U14C C111U, 1.14; for U14C C111A, 1.2.
U14C C90A: the self-cleavage was found to be 0.
For U14C G89U the value was 0.05; for U15C G88A, 0.06; for U15C U39C, 1.51.
In the case of U14C G27A it was 1.15; in that of U15C A140G, 1.59; in that of U15C A140C, 1.12.
In the case of U15A A64G it was 0.08.
On to U15A A64U, for which the self-cleavage worked out at 0.29.
In the case of U15A C28A it was 1.16; in that of U15C G48A, 1.41; in that of U14G U29C, 1.6.
For U14C U115A the value was 1.45.
Regarding U14C G93U, the self-cleavage was 0.06.
For U14C C66U the value was 0.03; for U15A C38A, 0.77; for U15A C19A, 0.79.
For U15A C19U the value was 0.93; for U14G A121U, 0.95; for U15C A31U, 0.95.
In the case of U15C A31G it was 0.75; in that of U15A A136G, 1.26.
Consider U15C G135U, for which the self-cleavage amounted to 1.21.
For U15A U85G the value was 0.28; for U15A U85A, 0.11.
For U15A U45C, the self-cleavage was determined as 0.66.
For U14C A141G the value was 1.03; for U15C G58A, 0.11; for U14C U15A, 0.93.
In the case of U14C U15C it was 1.27; in that of U14C G33U, 1.14.
For U14C G33A the value was 1.02.
U15C A107U: the self-cleavage is 1.2.
In the case of U15C C17A, the self-cleavage amounted to 1.28.
For U15A U87A the value was 0.08; for U15A U87C, 0.28.
In the case of U15C G49U it was 0.94.
With U14C G70A, the self-cleavage amounted to 0.26.
In the case of U15C U23G it was 1.31; in that of U14C G60A, 0.11.
In the case of U14C A43U it was 1.15.
For U15C G40A the value was 0.3; for U15C C103U, 1.53.
Consider U15A A92G, for which the self-cleavage stood at 0.25.
For U15A A79U the value was 1.09; for U15C G27A, 1.1.
Turning to U15C U20A, the self-cleavage was 1.12.
In the case of U15C U20G it was 0.52; in that of U15C U20C, 1.33.
For U15A U81A the value was 1.56; for U15A U81C, 1.14; for U14C G36C, 1.41.
In the case of U14C U130A it was 1.47.
Consider U14C U130C, for which the self-cleavage is 1.5.
On to U15C A67U, for which the self-cleavage turned out to be 0.17.
For U15C A67C the value was 0.07; for U14C G21A, 1.39; for U15A A142C, 1.71.
For the variant U14G A141G, the self-cleavage amounted to 0.89.
For U15C A94G the value was 0.34.
For U14G A117G the value was 0.39; for U14G A117U, 0.78.
For the variant U15C U104G, the self-cleavage came to 1.29.
In the case of U15A A22U it was 1.16; in that of U15A A22C, 0.85.
Turning to U15A A22G, the self-cleavage stood at 0.79.
As for U14C A94U, the self-cleavage was 0.29.
On to U15G U119A, for which the self-cleavage came to 1.01.
With U15C U81C, the self-cleavage came out at 1.43.
In the case of U15C U81A it was 2.14; in that of U15A G125U, 0.89; in that of U14C A64G, 0.33.
In the case of U14C A78U it was 1.44.

Values taken from the RNAGym collection of RNA variant scans (doi:10.7554/elife.90254).
